From paper PMC5489075, “Purification and characterisation of the fission yeast Ndc80 complex” (Protein Expression and Purification, 2017)

Molecular target: T1, Ndc80-eGFP holo complex (S. pombe, UniProt Q10198 1-624; Q10173 1-441; Q9UST6 1-198; Q10430 1-238)
T1 construct: Ndc80, S. pombe, full-length 624 a.a; Nuf2, S. pombe, full-length 441 a.a; Spc24, S. pombe, full-length 198 a.a; Spc25, S. pombe, full-length 238 a.a; also called Ndc80 holo complex; Ndc80 complex; source: E. coli BL21 (DE3) RIL; two sub-complexes purified, mixed, purified (Ni-TED, TEV cleavage, Superose 6 size-exclusion chromatography); not shown: 6His-Z, N-terminal, cleaved; Z-tag, N-terminal, …
Experiment: TIRF microscopy; 100 pM Ndc80-eGFP holo complex on dynamic Cy5-microtubules with 10 nM unlabelled Dis1 or 20 nM unlabelled Mal3; read-out is the place of the eGFP signal (lattice or growing plus end); BRB80 with 85 mM KCl, 30 °C
Details: both partners purified

T1 sequence (Q10198 whole entry, chain 1 of 4): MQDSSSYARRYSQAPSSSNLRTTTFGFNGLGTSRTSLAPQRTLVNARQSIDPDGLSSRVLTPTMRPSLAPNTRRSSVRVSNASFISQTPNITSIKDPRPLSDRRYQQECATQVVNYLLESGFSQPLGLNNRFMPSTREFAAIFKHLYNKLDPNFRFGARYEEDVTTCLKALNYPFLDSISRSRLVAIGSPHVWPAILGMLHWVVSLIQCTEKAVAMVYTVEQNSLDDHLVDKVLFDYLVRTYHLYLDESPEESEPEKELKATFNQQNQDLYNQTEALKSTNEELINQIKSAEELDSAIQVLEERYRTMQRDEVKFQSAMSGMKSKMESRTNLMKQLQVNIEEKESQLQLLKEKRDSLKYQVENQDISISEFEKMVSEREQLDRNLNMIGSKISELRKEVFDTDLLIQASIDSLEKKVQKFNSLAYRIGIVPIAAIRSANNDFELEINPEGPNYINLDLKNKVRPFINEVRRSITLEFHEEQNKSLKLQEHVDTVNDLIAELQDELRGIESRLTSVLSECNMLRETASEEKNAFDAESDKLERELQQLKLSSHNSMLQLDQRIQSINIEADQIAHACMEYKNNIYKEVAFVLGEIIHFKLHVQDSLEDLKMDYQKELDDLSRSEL
T1 sequence (Q10173 whole entry, chain 2 of 4): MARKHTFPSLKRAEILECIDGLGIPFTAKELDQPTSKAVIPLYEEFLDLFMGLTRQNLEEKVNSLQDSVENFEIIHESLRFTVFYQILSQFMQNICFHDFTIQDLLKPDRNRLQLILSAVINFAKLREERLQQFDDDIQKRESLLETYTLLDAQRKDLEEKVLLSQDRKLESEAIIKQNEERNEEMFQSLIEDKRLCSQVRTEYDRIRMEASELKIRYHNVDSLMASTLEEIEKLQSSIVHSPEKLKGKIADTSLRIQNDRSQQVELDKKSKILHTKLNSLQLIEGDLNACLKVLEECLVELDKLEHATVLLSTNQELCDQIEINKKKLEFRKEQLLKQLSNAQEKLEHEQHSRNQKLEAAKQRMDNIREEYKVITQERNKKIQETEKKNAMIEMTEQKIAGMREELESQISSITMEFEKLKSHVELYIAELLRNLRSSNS
T1 sequence (Q9UST6 whole entry, chain 3 of 4): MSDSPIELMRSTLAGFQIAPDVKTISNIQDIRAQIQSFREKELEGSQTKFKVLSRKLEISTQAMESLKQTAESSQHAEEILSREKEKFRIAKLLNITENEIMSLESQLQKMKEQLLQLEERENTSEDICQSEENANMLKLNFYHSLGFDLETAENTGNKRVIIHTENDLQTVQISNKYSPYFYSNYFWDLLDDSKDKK
T1 sequence (Q10430 whole entry, chain 4 of 4): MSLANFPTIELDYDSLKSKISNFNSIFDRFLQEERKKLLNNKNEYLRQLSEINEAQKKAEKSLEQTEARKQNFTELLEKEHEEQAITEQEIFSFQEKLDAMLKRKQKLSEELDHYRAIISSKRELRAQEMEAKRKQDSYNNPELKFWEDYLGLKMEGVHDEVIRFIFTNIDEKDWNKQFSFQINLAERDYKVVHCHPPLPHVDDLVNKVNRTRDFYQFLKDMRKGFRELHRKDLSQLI

B1: Mal3 (natural protein, S. pombe, UniProt Q10113 1-308, looked up)
chain: MSESRQELLAWINQVTSLGLTRIEDCGKGYAMIQIFDSIYQDIPLKKVNFECNNEYQYINNWKVLQQVFLKKGIDKVVDPERLSRCKMQDNLEFVQWAKRFWDQYYPGGDYDALARRGNRGPANTRVMNSSAGATGPSRRRQVSSGSSTPSMTKSSANNNNVSSTANTAAVLRAKQAQQQITSLETQLYEVNETMFGLERERDFYFNKLREIEILVQTHLTTSPMSMENMLERIQAILYSTEDGFELPPDQPADLTTALTDHDTNNVAEEAQMTDLKDSETQRVPSAPDFVHARLQSLEVDDDENITF
notes: Mal3, fission yeast EB1 microtubule plus-end tracking protein; also called Mal3/EB1; unlabelled Mal3
B1: binds.
